Measurements published in patent publication US12202907B2, “Nucleic acids encoding and methods of producing proteins comprising antibody chains” (Innate Pharma, priority 2018, dated 2025).
Entries after “also recorded” stand apart in the source; their conditions may differ.

What was measured:
[1] = target: T1, soluble recombinant human CD39 protein (Homo sapiens, UniProt P49961); assay: Inhibition of the enzymatic activity of soluble CD39 (Cell Titer Glo, cell-free); type: biochemical
T1 construct: made in house; host or cells: CHO cells
T1 sequence (P49961 with tags, fused parts or gaps): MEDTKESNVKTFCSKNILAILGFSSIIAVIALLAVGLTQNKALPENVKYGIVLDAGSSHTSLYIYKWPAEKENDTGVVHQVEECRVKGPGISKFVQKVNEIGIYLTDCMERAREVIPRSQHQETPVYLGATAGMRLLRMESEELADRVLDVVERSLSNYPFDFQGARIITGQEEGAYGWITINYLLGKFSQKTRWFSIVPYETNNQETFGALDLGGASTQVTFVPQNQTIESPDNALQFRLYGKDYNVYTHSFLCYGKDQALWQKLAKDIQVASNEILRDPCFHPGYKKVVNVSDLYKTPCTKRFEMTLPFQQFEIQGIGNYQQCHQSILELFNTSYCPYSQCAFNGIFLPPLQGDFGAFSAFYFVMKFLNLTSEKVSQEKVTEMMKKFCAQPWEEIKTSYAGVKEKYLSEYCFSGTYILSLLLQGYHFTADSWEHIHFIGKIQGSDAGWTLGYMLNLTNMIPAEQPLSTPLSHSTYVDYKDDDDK
Procedure: The inhibition by antibodies of the enzymatic activity of soluble CD39 protein produced was evaluated using Cell Titer GIo™ (Promega, reference G7571) that allows assessment of ATP hydrolysis through use of a reagent that generates a luminescent signal proportional to the amount of ATP present. In this way, inhibition of the soluble-CD39-meidated ATP hydrolysis can be assessed. Briefly, dose ranges of anti-CD39 antibodies from 100 μg/ml to […] were incubated with 400 ng/ml of soluble recombinant human CD39 protein having the amino acid sequence described in the Methods section (SEQ ID NO: 44), for 1 h at 37° C. 20 μM ATP was added to the plates for 30 additional minutes at 37° C. before addition of CTG (Cell Titer Glo) reagent. Emitted light was quantified using an Enspire™ luminometer after a short incubation period of 5 min in the dark. Anti-CD39 antibody efficacy was determined by comparing emitted light in presence of antibody with ATP alone (maximal light emission) and ATP together with soluble CD39 protein (minimal light emission).

[2] = target: T2, human Ramos lymphoma cells (CD39) (Homo sapiens, UniProt P49961); assay: Antibody titration on Ramos cells by flow cytometry; type: binding; details: qualitative
T2 construct: cells that endogenously express CD39 at their surface; host or cells: Ramos
T2 sequence (P49961 1-510): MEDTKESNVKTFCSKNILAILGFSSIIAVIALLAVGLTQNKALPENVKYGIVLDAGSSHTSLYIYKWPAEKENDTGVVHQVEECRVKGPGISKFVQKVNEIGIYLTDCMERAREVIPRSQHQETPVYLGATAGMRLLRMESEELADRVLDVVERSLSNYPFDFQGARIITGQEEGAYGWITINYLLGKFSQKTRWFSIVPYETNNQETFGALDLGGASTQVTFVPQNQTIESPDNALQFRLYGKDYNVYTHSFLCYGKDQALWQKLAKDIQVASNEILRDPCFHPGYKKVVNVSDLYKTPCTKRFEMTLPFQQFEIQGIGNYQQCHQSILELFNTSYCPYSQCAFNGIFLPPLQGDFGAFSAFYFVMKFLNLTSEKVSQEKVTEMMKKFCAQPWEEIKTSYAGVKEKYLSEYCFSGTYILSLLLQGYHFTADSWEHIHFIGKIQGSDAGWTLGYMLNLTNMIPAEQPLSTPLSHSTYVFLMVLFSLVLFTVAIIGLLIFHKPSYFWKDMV
Procedure: Antibody I-394 was tested in two repeated experiments for binding to CHO cells expressing human CD39, CHO cells expressing cynomolgus (Macaca fascicularis) CD39, CHO cells expressing murine CD39, and human Ramos lymphoma cells (ATCC™, reference CRL-1596). Cells were incubated with various concentration of unlabeled anti-CD39 antibody from 30 μg/ml to 5×10^−4 μg/ml, for 30 minutes at 4° C. After washes, cells were incubated with Goat anti-mouse H+L labeled secondary antibody for 30 min at 4° C.

CD4 or CD8 T cells = assay: T cell proliferation assay in the presence of added ATP; type: cell-based, human; details: for increase in potency of anti-CD73 antibodies: CD4 T cell proliferation
Procedure: Peripheral blood from healthy donors was obtained from EFS, and mononuclear cells were isolated on a Ficoll™ gradient. Lymphocytes were further enriched on a 52% Percoll™ gradient by collection of the cell pellets and stained with a Cell Trace dye (Thermofisher) following the TDS provided by the manufacturer. […] to 1×10^5 of stained cells were distributed in 96 round-bottom plates, incubated for 1 hour at 37° C. with anti-huCD73 antibodies (antibody 6E1 described in WO2016/131950) and/or anti-huCD39 Abs (I-394 described herein) and activated for 3 to 5 days by addition of anti-CD3/anti-CD28-coated beads (bead:cell=1:4; Life Technologies). Inhibition of T cell proliferation was achieved by addition of ATP (200 μM). T cell proliferation and ability of Abs to block immune suppressive effect of AMP were assessed by flow cytometry by quantifying the dye dilution in the proliferating T cell subset.
Percentage of proliferating T cells vs. anti-CD73 Ab concentration is plotted in graphs using GraphPad Prism™ software.

[3] = Aggregation temperature (thermal shift stability assay); type: physicochemical; details: human IgG1 with L234A/L235E/G237A/A330S/P331S
Procedure: Antibodies mAb1-24 and prior art anti-CD39 antibody BY40, all produced as human IgG1 isotypes with L234A/L235E/G237A/A330S/P331S substitutions were tested for stability in the following reference formulation at a concentration of approximatively 7 mg/mL: pH 6.0; histidine buffer (10 mM); sucrose (200 mM); NaCl (50 mM); Polysorbate 80 (PS80) (0.2 g/L). The stability of the formulations was monitored in two storage conditions (at +5° C.±3° C. and at +40±3° C. For each study, 3 time points were performed: T0, T15D (15 days) and T1M (1 month). A freeze thaw (F/T) and a thermal shift stability assay (TSSA) were conducted for the format comparison. To perform F/T cycles, the samples were frozen at least 2 hours at −20° C. and thawed at least 1 hour at room temperature, the F/T cycle is repeated three times and samples are tested 24 h after the last Freeze/Thaw cycle. At each time point, the following tests were performed: • Particulate Matter (MFI) • Visual Inspection (Appearance) • Impurities (SE-HPLC) • Turbidity (400 nm) • Protein Concentration (280 nm) (performed with Nanodrop, Thermo Fisher Scientific Inc.)

I-394: anti-CD39 antibody, VH SEQ ID NO: 6, VL SEQ ID NO: 7, human IgG1 Fc with L234A/L235E/G237A/A330S/P331S
inhibition maximum, soluble CD39 [1]: 74.9%
potency ranking for inhibition of soluble CD39 ([1]; FIG. 2B, comparison of BY40, I-394, I-395, I-396): greatest potency
inhibition of the enzymatic (ATPase) activity of soluble CD39 protein ([1]; qualitative): strong inhibition of the enzymatic activity of soluble CD39; also recorded: inhibits the enzymatic activity of soluble CD39 protein
binding to Ramos lymphoma cells [2]: bound
potentiation of anti-CD73 antibodies in restoring CD4 or CD8 T cell proliferation (CD4 or CD8 T cells; ATP 200 μM, combination with anti-CD73 antibody 6E1): strongly potentiation the effect of anti-CD73 antibodies in restoring CD4 or CD8 T cell proliferation
increase in potency of anti-CD73 antibodies (CD4 or CD8 T cells; anti-CD39 at 0.01 μg/ml): approximately 1 log
increase in potency of anti-CD73 antibodies (CD4 or CD8 T cells; anti-CD39 at 0.1 μg/ml): approximately 4 log
enhancement of CD4 or CD8 T cell proliferation, alone without anti-CD73 (CD4 or CD8 T cells; concentrations of 0.1 μg/ml and 1 μg/ml, ATP 200 μM): remarkable enhancement of CD4 or CD8 T cell proliferation
Aggregation temperature (TAgg) [3]: ~70 °C
